Measured values published in FireProtDB (doi:10.1110/ps.03176803).

Conditions: Kitasatospora aureofaciens; pH 7; Thermal; DSC; PIPES 0.03 M; reversible: yes (90-95%); whole UniProt chain shown

B1: Guanyl-specific ribonuclease Sa wild type, P05798 (protein)
chain: DVSGTVCLSALPPEATDTLNLIASDGPFPYSQDGVVFQNRESVLPTQSYGYYHEYTVITPGARTRGTRRIITGEATQEDYYTGDHYATFSLIDQTC
  Tm: 49 °C
  unfolding enthalpy (calorimetric): 385 kJ/mol
  unfolding enthalpy (van 't Hoff): 431 kJ/mol
